The text below walks through data of patent US20140051645A1 (Pieris, published 2014).

Experiment [1] deals with T1, human CTLA-4 on transfected CHO-K1 cells (human, UniProt P16410 36-223).
T1 construct: whole, on cells; also called human CTLA4-transfected CHO cells; CTLA-4 expressing CHO cells
T1 sequence (looked up): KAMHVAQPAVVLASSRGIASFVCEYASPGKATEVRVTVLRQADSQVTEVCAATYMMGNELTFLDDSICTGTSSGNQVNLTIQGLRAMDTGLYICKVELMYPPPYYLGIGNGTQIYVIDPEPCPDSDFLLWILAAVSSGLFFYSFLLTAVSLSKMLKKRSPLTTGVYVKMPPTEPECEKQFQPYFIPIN
The experiment in a line: competition FACS on human CTLA4-transfected CHO-K1 cells; blocked ligand: biotinylated human B7.1 at 10 nM, detected with streptavidin-phycoerythrin.

Experiment [2] has as its target T2, human CTLA-4-Fc (Chimerigen) (human, UniProt P16410 36-161, limits assumed).
T2 construct: Bought fusion protein; also called hCTLA4-Fc; not shown: It was captured by an anti-human IgG-Fc antibody
T2 sequence (looked up): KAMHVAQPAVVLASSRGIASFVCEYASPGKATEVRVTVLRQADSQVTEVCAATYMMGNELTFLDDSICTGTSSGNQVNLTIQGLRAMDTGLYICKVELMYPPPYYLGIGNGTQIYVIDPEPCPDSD
The experiment in a line: screening ELISA of crude lysates: mutein captured by T7 mAb, limited soluble human CTLA4-Fc; in some cases competition ELISA with mAb BNI3. Here is the method: Therein, NGAL variants equipped with a T7 detection tag (Novagen) as well as a Strep-tag II affinity tag (IBA) were soluble expressed in a 96 well microtiter plate using the E. coli strain TG1/F with phNGAL37 SEQ ID NO: 10. This vector corresponds to phNGAL15 SEQ ID NO: 11 as described in the following example 4 with an N-terminal T7 tag consisting of 11 amino acids ([…]). Lipocalin mutein expression was induced overnight at 22° C. at 700 rpm with anhydrotetracycline (0.2 μg/ml) at an OD₅₅₀ of 0.6. Afterwards, cells were lysed (100 mM Na-borate, pH 8.0, 80 mM NaCl, 1 mM EDTA, 0.025% w/v lysozyme) for 1 h under agitation. To minimize non-specific binding in the subsequent ELISA screen, the crude cell lysates were supplemented with 2% w/v BSA and 0.1% v/v Tween 20 and tested in ELISA for binding to human CTLA-4-Fc (Chimerigen).
In a reverse ELISA approach soluble expressed muteins from the crude cell lysate were captured via immobilized T7 mAb (5 μg/ml, Novagen) on wells of black Fluotrac 600 ELISA plates (Greiner; 384 well). Neutravidin, 5 μg/ml, and 3% milk were used as negative control. […] Subsequently plates were washed five times and bound target was detected via an goat anti-human Fc monoclonal antibody-HRP conjugate (Jackson ImmunoResearch), diluted 1:5.000 in PBST/0.1. Therefore, QuantaBlu™ (Pierce; 1:2 diluted in PBS/T 0.1%) was used as fluorogenic HRP substrate. After 45 min of signal development at room temperature fluorescence was excited at a wavelength of 320 nm (±12.5 nm) and measured at 430 nm (±17.5 nm) in a GENiosPlus plate reader (Tecan).
In some cases a competition ELISA was carried out where CTLA4-Fc (2.5 μg/ml) was captured in ELISA plates via an immobilized mouse anti-human IgG Fc Gamma fragment-specific antibody (Jackson ImmunoResearch (5 μg/ml) and incubated for 1 h with a pre-mixture of the mutein extracts and different concentrations of a competitive CTLA4-specific mAb BNI3 (BD Bioscience) at concentrations of 30, 100, and 200 nM, respectively.
(ELISA stands for enzyme-linked immunosorbent assay.)

The target in experiment [3] is T3, murine CTLA4-Fc (R&D Systems) (mouse, UniProt P09793 36-162, limits assumed).
T3 construct: Bought fusion protein; also called mouse CTLA4; not shown: It was captured by an anti-human IgG-Fc antibody
The experiment in a line: SPR, Biacore T100, 25 C; CTLA4-Fc captured on anti-human IgG-Fc, mutein as analyte; 1:1 Langmuir fit. Here is the method: (§1) Real time affinity analysis was performed at 25° C. using a Biacore T100 system (GE Healthcare). Anti-human IgG-Fc antibody (Jackson ImmounoResearch Laboratories) was immobilized on a CM5 sensor chip using standard amine coupling chemistry, resulting in a ligand density of 8000 resonance units (RU). […] Subsequently, the Lcn2 muteins (SEQ ID: No 12 to SEQ ID NO: 17) were applied in an appropriate dilution series in HBS-EP at a flow rate of 30 μl/min. Regeneration of the derivatized chip surface was achieved by a combination of first basic (2.5 mM NaOH) and then acidic (10 mM glycine, pH 1.5) buffer, each for 8 and 16 s, respectively. […] To correct for buffer effects and baseline drift, double referencing was used throughout. Kinetic data evaluation was performed using the Biacore T100 Evaluation Software (v. 2.0.1) using the Langmuir 1:1 binding model and global fitting.

Experiment [4] deals with T2, human CTLA-4-Fc (Chimerigen). Described as above. Here is the method: as §1
Experiment [5] has as its target T1, human CTLA-4 on transfected CHO-K1 cells. In words: competition FACS on human CTLA4-transfected CHO-K1 cells; competitor biotinylated human B7.1 at 10 nM. The procedure: Different concentrations of the Lcn2 muteins or, as a positive control, of the antibody BNI3 (BD Bioscience) were mixed with recombinant biotinylated human B7.1 (Ancell) at 10 nM final concentration and added to 100 000 of the CTLA-4 transfected CHO-K1 cells which were generated according to the description in example 16 of PCT/EP 2005/012640. Samples were incubated at 4° C. for 2 h, washed twice in PBS containing 2% w/v BSA, and detection of bound B7.1 was accomplished by incubation with streptavidin-phycoerythrin for 30 min at 4° C. Mean fluorescence intensities were determined by flow cytometry and fitted to a sigmoidal dose response model using Prism (GraphPad) as depicted in FIG. 4 to determine EC50 values for Lcn2 muteins from sequences of SEQ ID NO: 12 to SEQ ID NO: 17 which are summarized in Table 3.

Substitutions are numbered along the chain they refer to.

For the molecule BNI3 (antibody), the IC50 (read off the curve) in experiment [1] is 3 nM.

B1: SEQ ID NO 14 (designed binder)
chain: MASMTGGQQMGQDSTSDLIPAPPLSKVPLQQNFQDNQFHGKWYVVGLAGNRILRDDQHPMPMYATIYELKGDKSYNVTSVISSHKKCLYPIATFVPGSQPGEFTLGNIKSYGDKWSYLVRVVSTDYNQYAVVFFKHADSNYESFSITIYGRTKELASELKENFIRFSKSLGLPENHIVFPVPIDQCIDG
notes: Screening construct in crude E. coli lysate, with T7 tag, mutein and Strep-tag II
For the molecule B1, the binding result in experiment [2] is “binds”.

B2: SEQ ID NO 17 (designed binder)
chain: B1 chain with D55L, K109R, W115T, S139T
notes: as for B1
For B2, the binding result in experiment [2] was “binds”.

B3: SEQ ID NO 13 (designed binder)
chain: B1 chain with D55Q, P61L, W115V, S139T
notes: as for B1
For the molecule B3, the binding result in experiment [2] was “binds”.

B4: SEQ ID NO 15 (designed binder)
chain: B1 chain with D55S, P61R, P90T, S139T
notes: as for B1
On to B4, for which, in experiment [2], the binding result is recorded as “binds”.

B5: SEQ ID NO 16 (designed binder)
chain: B1 chain with D55S, P90S, W115E, H136Y, D138S, S139D, Y141D
notes: as for B1
On to B5, for which the binding result in experiment [2] is on record as “binds”.

B6: hNGALM4 (designed binder)
chain: QDSTSDLIPAPPLSKVPLQQNFQDNQFHGKWYVVGLAGNRILRDDQHPMPMYATIYELKGDKSYNVTSVISSHKKCLYPIATFVPGSQPGEFTLGNIKSYGDKWSYLVRVVSTDYNQYAVVFFKHADSNYESFSITIYGRTKELASELKENFIRFSKSLGLPENHIVFPVPIDQCIDG
Consider B6, for which, in experiment [3], the Kd – broadly, the concentration at which binding is half-saturated – came to 0.584 nM; the koff (in general, the first-order rate constant of dissociation) came out at 0.000129 s⁻¹; the kon (usually the rate constant with which the complex forms) worked out at 221000 M⁻¹ s⁻¹. Besides, in experiment [4], the Kd worked out at 0.346 nM, the koff was determined as 0.000186 s⁻¹ and the on-rate (kon) was 539000 M⁻¹ s⁻¹. Besides, in experiment [5], the concentration giving a half-maximal response (EC50) (usually the concentration that produces a half-maximal response) stood at 9.5 nM.

B7: hNGALM3 (designed binder)
chain: QDSTSDLIPAPPLSKVPLQQNFQDNQFHGKWYVVGLAGNRILRQDQHPMLMYATIYELKGDKSYNVTSVISSHKKCLYPIATFVPGSQPGEFTLGNIKSYGDKVSYLVRVVSTDYNQYAVVFFKHADTNYESFSITIYGRTKELASELKENFIRFSKSLGLPENHIVFPVPIDQCIDGSAWSHPQFEK
Regarding B7, in experiment [3], the Kd is 0.672 nM, the koff amounted to 0.000134 s⁻¹ and the kon turned out to be 199000 M⁻¹ s⁻¹. In experiment [4], the Kd was determined as 0.46 nM, the koff came to 0.000194 s⁻¹ and the kon was 422000 M⁻¹ s⁻¹. Also, in experiment [5], the response was half-maximal at 7.6 nM (EC50).

B8: hNGALM6 (designed binder)
chain: B7 chain with Q44S, L50P, P79S, V104E, H125Y, D127S, T128D, Y130D
In the case of B8, in experiment [3], the Kd was 66.1 nM, the koff is 4.21 s⁻¹ and the association rate constant (kon) was 6.36e+07 M⁻¹ s⁻¹. Further, in experiment [4], the Kd was determined as 0.588 nM, the koff was determined as 0.000197 s⁻¹ and the association rate constant (kon) was 335000 M⁻¹ s⁻¹. The EC50 in experiment [5] turned out to be 10.3 nM.

B9: hNGALM5 (designed binder)
chain: B7 chain with Q44S, L50R, P79T, V104W
With B9, in experiment [3], the Kd is 0.32 nM, the koff was 0.000261 s⁻¹ and the association rate constant (kon) was determined as 813000 M⁻¹ s⁻¹. In experiment [4], the equilibrium dissociation constant (Kd) was determined as 0.74 nM, the off-rate constant (koff) stood at 0.000281 s⁻¹ and the association rate constant (kon) came to 380000 M⁻¹ s⁻¹. Further, the half-maximal effective concentration (EC50) in experiment [5] came to 9 nM.

B10: hNGALM7 (designed binder)
chain: B7 chain with Q44L, L50P, K98R, V104T
As to B10, in experiment [3], the equilibrium dissociation constant (Kd) was 0.413 nM, the koff turned out to be 0.000108 s⁻¹ and the on-rate constant (kon) amounted to 261000 M⁻¹ s⁻¹. Besides, in experiment [4], the Kd is 0.659 nM, the dissociation rate constant (koff) stood at 0.000517 s⁻¹ and the kon amounted to 784000 M⁻¹ s⁻¹. The EC50 in experiment [5] turned out to be 11 nM.

B11: hNGALM2 (designed binder)
chain: B7 chain with I41L, Q44D, L50D, V104W
Turning to B11, in experiment [3], the Kd was 3.05 nM, the koff amounted to 0.000907 s⁻¹ and the kon came to 298000 M⁻¹ s⁻¹. Also, in experiment [4], the Kd stood at 0.686 nM, the koff amounted to 0.000388 s⁻¹ and the kon is 565000 M⁻¹ s⁻¹. In experiment [5], the concentration for a half-maximal effect (EC50) was found to be 6 nM.
